Data taken from the DeepSol protein solubility set.

Assay: soluble on expression in E. coli; label from the status in PepcDB or PDB records

| Sequence | soluble on expression in E. coli |
| --- | --- |
| GPGSMSGAGNLRSNRRREMDYMRLCNSTRKVYPSDTVAEFWVEFKGPEGTPYEDGTWMLHVQLPSDYPFKSPSIGFCNRILHPNVDERSGSVCLDVINQTWTPMYQLENIFDVFLPQLLRYPNPSDPLNVQAAHLLHADRVGFDALLREHVSTHATPQKALESIPEAYRPHDNTHEEEPDEANAKDTASDGPVNAGHSKGLTDSSVTPTEDHRVMHDDIAIDGDEDVEAEYEPEEIDL | soluble |
| MAAESQLKRVIETLRRLGIEEVLKLERRDPQYRAVCNVVKRHGETVGSRLAMLNALISYRLTGKGEEHWEYFGKYFSQLEVIDLCRDFLKYIETSPFLKIGVEARKKRALKACDYVPNLEDLGLTLRQLSHIVGARREQKTLVFTIKILNYAYMCSRGVNRVLPFDIPIPVDYRVARLTWCAGLIDFPPEEALRRYEAVQKIWDAVARETGIPPLHLDTLLWLAGRAVLYGENLHGVPKEVIALFQWRGGCRPPSE | soluble |
| ASLYEKLGGAAAVDLAVEKFYGKVLADERVNRFFVNTDMAKQKQHQKDFMTYAFGGTDRFPGRSMRAAHQDLVENAGLTDVHFDAIAENLVLTLQELNVSQDLIDEVVTIVGSVQHRNDVLNR | soluble |
| MGSDKIHHHHHHMEVKVGLAPMAGYTDSAFRTLAFEWGADFAFSEMVSAKGFLMNSQKTEELLPQPHERNVAVQIFGSEPNELSEAARILSEKYKWIDLNAGCPVRKVVKKGAGGALLKDLRHFRYIVRELRKSVSGKFSVKTRLGWEKNEVEEIYRILVEEGVDEVFIHTRTVVQSFTGRAEWKALSVLEKRIPTFVSGDIFTPEDAKRALEESGCDGLLVARGAIGRPWIFKQIKDFLRSGKYSEPSREEILRTFERHLELLIKTKGERKAVVEMRKFLAGYTKDLKGARRFREKVMKIEEVQILKEMFYNFIKEV | not soluble |
| KKEQEQMLKEERKRELEEKVKAVEDRAKRRKLREERAWLLAQGKELPPELSHLDPNSPMREEKKTKDLFELDDDFTAMYKVLDVVKAHKDSWPFLEPVDESYAPNYYQIIKAPMDISSMEKKLNGGLYCTKEEFVNDMKTMFRNCRKYNGESSEYTKMSDNLERCFHRAMMKHFPGEDGDTDEEFWIREDEKREKRRSRAGRSGGSHVWTRSRDPEGSSRKQQPMENGGKSLPPTRRAPSSGDDQSSSSTQPPREVGTSNGRGFSHPLHCGGTPSQAPFLNQMRPAVPGTFGPLRGSDPATLYGSSGVLEPHPGEPVQQRQPFTMQPPVGINSLRGPRLGTPEEKQMCGGLTHLSNMGPHPGSLQLGQISGPSQDGSMYAPAQFQPGFIPPRHGGAPARPPDFPESSEIPPSHMYRSYKYLNRVHSAVWNGNHGATNQGPLGPDEKPHLGPGPSHQPRTLGHVMDSRVMRPPVPPNQWTEQSGFLPHGVPSSGYMRPPCKSAGHRLQPPPVPAPSSLFGAPAQALRGVQGGDSMMDSPEMIAMQQLSSRVCPPGVPYHPHQPAHPRLPGPFPQVAHPMSVTVSAPKPALGNPGRAPENSEAQEPENDQAEPLPGLEEKPPGVGTSEGVYLTQLPHPTPPLQTDCTRQSSPQERETVGPELKSSSSESADNCKAMKGKNPWPSDSSYPGPAAQGCVRDLSTVADRGALSENGVIGEASPCGSEGKGLGSSGSEKLLCPRGRTLQETMPCTGQNAATPPSTDPGLTGGTVSQFPPLYMPGLEYPNSAAHYHISPGLQGVGPVMGGKSPASHPQHFPPRGFQSNHPHSGGFPRYRPPQGMRYSYHPPPQPSYHHYQRTPYYACPQSFSDWQRPLHPQGSPSGPPASQPPPPRSLFSDKNAMASLQGCETLNAALTSPTRMDAVAAKVPNDGQNPGPEEEKLDESMERPESPKEFLDLDNHNAATKRQSSLSASEYLYGTPPPLSSGMGFGSSAFPPHSVMLQTGPPYTPQRPASHFQPRAYSSPVAALPPHHPGATQPNGLSQEGPIYRCQEEGLGHFQAVMMEQIGTRSGIRGPFQEMYRPSGMQMHPVQSQASFPKTPTAATSQEEVPPHKPPTLPLDQS | soluble |
| MNDKIQKLIKKLAKECQKEDVALSLAAIDLEGEMAISQVGKGTIVAIAAHSQYTLTKEKLEQSDCDCPKHRLLKEMYGTETETTTKNTHTFVTDDPNDLMDILSKIFRGEFK | not soluble |
| VGSFYGQYLSIRKTEALLRNELNALTPATVMELADKLPEKSSSLVISYIRQVLQAHESPAQIQRLLANFEIAADKDLAISKTLTKLGP | not soluble |
| MSLKDILVIGATGKQGNAVVKQLLEDGWYVSALTRNKNNRKLSDIGHPHLSIVEGDLSDNVSLQSAMKGKYGLYSIQPIVKDDVSEELRQGMKIIEIAEQENIQHIVYSTAGGVNRNRTGPHFEVLAKIENRLMESNINATVIKPSFFMDNFLRIAKVEDERITLPEFINPNIKFTMISSIDIAKIASYIFAHPQSFTHQSIEIGSDEVTLSEAATIFSEVTGKSTVIEGEFVSGVAEKQWLEEKGYEVDFELMAEINPTRLSLSDWLKVQNYNEGHHHHHH | soluble |
| HGSSTVDELTAAFTGGAATGEGGLTLTAPEIAENGNTVPIEVKAPGAVAIMLLAAGNPEPAVATFNFGPAAADQRAATRIRLAQTQDVIALAKMADGSVVKAQTTVKVTIGGCGG | soluble |
| MVKAGKKVKGASKVRENETEEEKKIRLEMEALAADEAERKAQEAARVALRERQLREQRYAHLNGIKIHNQWRKIMRMAKVEELRREIEILSQNHEREVDRKDAIMQMLDRDLEEAEEQYSLAVRSHMLVVDNLLDLQYQRMRALEAEFAADLKALEDEFETERTEIVNAHTRQRKDMGDMIAAMEGEFADAEAELRQEYEAQREEIKNRNSEEYNVLKIQLEGIIEELEKSFELAHRAYLESTEHRTNTFRTLTKDDAKAALKIERQMRKLVRLQEALQHWRTKIATNGREWEERNRALRNEKEIMARHYAKLKSSMDAFRAGQAERLKQLSLASSGAMETLRGKLAVAENVLKLAELARKYETEQEKVLPFWNPAQAVPSGEQGDEEAAAQAEAEAAALEPSVAELGELGLRASMPEDSSKEAPGPSKSSAGPGKPKFSSYGLDPSSGSEVDEWDYLNCFFRRYNKALLDKTAIDKEKSRLERENADLRSILKQYLDGISVNDDVLNNPVNPLLVVNNRLQITLTERNKARAAAMAQRAAAATGAGLSVTGQGAGGGGQKQLVEVQVVSRVS | not soluble |
| MGSDKIHHHHHHQISGDTVKIGFITDMSGLYADIDGPGGVEAIKLAISDMKGTVAGKKIELVYADHQNKADVAASKAREWFDTQGVDMLIGGTNSGTALAMTKVAAEKKKPFIAIGAGTSRISNEDCTPYSIHYAYDTVALANGTGSAVTKAGGKSWYFLTADYAFGQSLQNDTSNVVTKSGGQVLGSVKHPLSASDFSSFLLQAQSSKAQILGLANAGGDTINSIKAANEFGITKTMKLAGLLMFINDIHSLGLNATQGMYMTDSWYWNQSPEARAWSRRFFEKMKRMPSSIQAADYSAAMHFLKAVEAAKTDDGDKVMAQMKAMPINDFYAKGSIRKEDGRGIHDMFLLQVKSQQESTEPWDYFKVVEKIPGEQAFTKLADSKCPLVKK | not soluble |
| MGSDKIHHHHHHMAPRKVIITCAVTGSVHTPSMSPYLPVTPDQIASDAIAAAEAGASILHLHARDPKDGRPTADPDVFMQFLPRIKQATDAVINITTGGSSLMTLDQRLAAPLRAEPEMCSLNMGSMNFALFPMLDKPREWQHEWEPKLLEATRDTIFKNTFADMEGVLERLGKGCGTRFEFECYDVGHLYSLAHFRDRGLVSGPLFIQFVLGILGGIGADPDNLVHMKRIADKLFGDSYQFSVLAAGRQQMPLISIAAAMGGNVRVGLEDSLYDGRQLAKSNADQVRRIRGILDGLSLEVATPAEAREMLALKGGDRVAF | not soluble |
| MVNNSKTILITGCSHGGIGYATAVHLKNLGHRVFASARQQKDVEALSQEGFETYLIDVTNYEYIDNALADILNKTGGSLDVIFNNAGYGQAGALEDIDTKFLKQQFETNVFGLHNLTYKALKIMRKQGYGKIIQHSSVLGLVAMKYRGAYNASKYAIEGLTDTMRLELRDSNIFITSLNTGPITSKFRENSIKTITNVNYDSSVHKQQYEKILARQHKKVPFNEPAISVAKVVEKIINCDKPKPRYYITKATWIMASLKRILPTNILDNFLNRY | not soluble |
| MVSSLIRLRGGGLAEWNPEERPSIPAEIKRRVLVEAGHRCAIPTCRHIEVDIHHIVPWRTCQAHEYENLIALCPNCHRRADREEIDRKSLKLYKLNLRFVHEKYSQIEMDMLFDLARAPDGVGAPWTPFMLIFFKRVIDSGFVNVYELPGGIFVNGIKSSPSYLTITELGRNFISELGDRDLLALEHHHHHH | not soluble |
| MGSDKIHHHHHHMAAEALADEHLVMLAYRDPAIGDHIDVQKVRLPFRWEFDLPTIFSLVRLVWRKKIDILIPTKRKDYVLAGLVCRLTGAANILRLGIDRPLKNTPVQRLIYGWLADGIIVNADKIRRTLALSPWIDPDKVRVIYNGIDREKLEPDSVLPCKKPFSFTIGAAGALIPRKGFDYLIRSFARFSAGSNEITDAGLVIAGTGPERESLEKLAADLGISGRVRFTGHLTNPYPVMRACDLFVSASTSEGLANVLLESMALHCVPVSTLSGGADELIEDGRNGFLVRYGDEKRLAEIFSELYKNPGKIASVAANAHQTIMQRFSIELMRKDLFEFCSEINDRKKGT | not soluble |
| THGWNFQVSANAAYNKNEVMDLKNGGARIWSGKYFNQEGYAINSIGGYIAEGLFKTEEEVANSATIPGTDTAPGDIKYRDINNDGKIDGEDRVYIGNTMPKWTFGLNLFAEWKGLDATFLFQGAADVQGYLAGPGVVGEMIGAKGKPSYMYRDCWDAETNPNGKFPRAFSSYRQNNSIYNPSSFWIVNSSYLRLKNFQLGYTLPKEWCNMMGISRIRVYYSGQNLLTFTKFDKGFDPESPEGGSSYPQVKTNTFGLNITF | not soluble |
| MTFGEKLLNAASTRGRLCVGIDPHESLLTSWGLPVNVDGLAEFSRACVEAFADTVALVKPQVAFYERFGSAGFAILEETIQTLRERGCLVVSDAKRGDIGSTMAGYASAWLDPASPLSSDAVTVSPYLGFHSLDPVFELAEQHGRGVFVLAATSNPEARELQDQQNADGVSISQQIVDQAAALNAPYMAQGKAGNIGVVIGATLSKPPRLSTLGGAILMPGVGAQGGTASDVDEIAGDMAHLAFPNVSRSILATGPDIAEMKNSVAKNAADFPGFPRS | soluble |
| MPIDAMSDRNHAFASDEPPEIQVHPHDRYHAVIKKCASLPPLVTAVVHPVDSQVLSAVSDAVMEKLITPLLVGPAGRIEKAADEAGIDLSKWQVIDTPHSHAAAEKAVELAAAREVGAIMKGSLHTDELLGPIVARGSGLRTGRRLSHAYVMDTAGYHKWLIVTDAVVNISPDLCAKADICRNAVDAWVALTGESCLPKIAVLAAVEVVNAAMQATLDAAALCKMAERGQITGCIIDGPLAFDNAISRQAAKEKHIVSQVAGDADILLAPDIEAGNILAKQLTFISHADAAGVVMGAKVPVILTSRADNLRTRLLSCALAVLVQRAKEEGRIK | soluble |
| MHHHHHHGSACFAKGTNVLMADGSIECIENIEVGNKVMGKDGRPREVIKLPRGSETMYSVVQKSQHRAHKSDSSREMPELLKFTCNATHELVVRTPRSVRRLSRTIKGVEYFEVITFEMGQKKAPDGRIVELVKEVSKSYPVSEGPERANELVESYRKASNKAYFEWTIEARDLSLLGSHVRKATYQTYAPIGAAFARECRGFYFELQELKEDDYYGITLSDDSDHQFLLANQVVVH | soluble |
